In publication PMC10354024, “Conformational trajectory of allosteric gating of the human cone photoreceptor cyclic nucleotide-gated channel” (Nature Communications, 2023):
Blank lines part the entries; values can stand above or below the binder they belong to.

Assays:
[1] = biological target: T1, truncated human CNGB3 (amino acids 79-809) (human, UniProt Q9NQW8-1 79-809); experiment: cryo-EM structure; truncated CNGA3/CNGB3 co-expressed (P2A) and co-purified, in POPG/POPC (1:1) nanodiscs with MSP2N2, 50 mM HEPES-Na pH 8.58, 150 mM NaCl, 0.1 mM TCEP, 2 mM EGTA, 4 mM cGMP; five states (closed, intermediate 1, intermediate 2, pre-open, open), C1 symmetry; details: both partners purified
T1 construct: human CNGB3, NCBI NP_061971.3, amino acids 79-809 (amino acids 1-78 removed); Expressed as trunCNGA3-P2A-trunCNGB3 from one pEZT-BM vector; a residue of the P2A linker may precede the FLAG tag (surmised); also called truncated CNGB3; trunCNGB3
T1 sequence (looked up): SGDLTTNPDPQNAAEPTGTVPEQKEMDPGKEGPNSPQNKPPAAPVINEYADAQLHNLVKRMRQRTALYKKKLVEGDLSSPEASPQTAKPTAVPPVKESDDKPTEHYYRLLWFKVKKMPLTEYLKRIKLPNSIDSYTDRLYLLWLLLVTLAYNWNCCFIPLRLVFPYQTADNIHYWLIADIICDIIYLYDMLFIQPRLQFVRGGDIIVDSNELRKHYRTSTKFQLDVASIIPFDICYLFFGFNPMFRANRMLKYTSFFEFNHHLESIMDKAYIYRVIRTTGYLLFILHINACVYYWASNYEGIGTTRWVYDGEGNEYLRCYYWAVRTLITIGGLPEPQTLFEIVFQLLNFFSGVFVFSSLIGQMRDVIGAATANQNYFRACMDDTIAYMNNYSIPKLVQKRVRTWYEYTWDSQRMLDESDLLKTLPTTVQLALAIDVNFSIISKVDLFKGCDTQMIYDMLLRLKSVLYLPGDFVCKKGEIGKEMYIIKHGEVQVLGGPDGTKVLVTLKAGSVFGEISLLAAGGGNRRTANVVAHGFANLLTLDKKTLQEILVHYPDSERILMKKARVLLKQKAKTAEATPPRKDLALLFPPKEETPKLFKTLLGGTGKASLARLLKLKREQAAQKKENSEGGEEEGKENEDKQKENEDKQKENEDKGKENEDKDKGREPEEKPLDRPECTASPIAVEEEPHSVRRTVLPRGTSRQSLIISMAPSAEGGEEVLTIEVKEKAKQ

[2] = biological target: the molecule itself; experiment: as above
[3] = biological target: T2, human CNGB3, full-length (human, UniProt Q9NQW8-1 1-809, N339 glycosylation site); experiment: cryo-EM structure; full-length CNGA3/CNGB3 co-expressed and co-purified, in 0.02% GDN, 50 mM HEPES-Na pH 8.58, 150 mM NaCl, 0.1 mM TCEP, 2 mM EGTA, 2 mM cGMP; three states (closed, intermediate 1, intermediate 2), C1 symmetry; details: both partners purified
T2 construct: human cone photoreceptor cyclic nucleotide-gated channel subunit CNGB3, NCBI NP_061971.3, full length; modelled residues L206 to R643; One copy of this subunit stands with three CNGA3 in the channel tetramer; Cloned in the vector pEZT-BM (Addgene #74099); source: HEK 293S GnTi- cells (BacMam), co-infected with CNGA3 virus, purified (amylose resin, StrepTrap, Superose 6) in GDN
T2 sequence (looked up): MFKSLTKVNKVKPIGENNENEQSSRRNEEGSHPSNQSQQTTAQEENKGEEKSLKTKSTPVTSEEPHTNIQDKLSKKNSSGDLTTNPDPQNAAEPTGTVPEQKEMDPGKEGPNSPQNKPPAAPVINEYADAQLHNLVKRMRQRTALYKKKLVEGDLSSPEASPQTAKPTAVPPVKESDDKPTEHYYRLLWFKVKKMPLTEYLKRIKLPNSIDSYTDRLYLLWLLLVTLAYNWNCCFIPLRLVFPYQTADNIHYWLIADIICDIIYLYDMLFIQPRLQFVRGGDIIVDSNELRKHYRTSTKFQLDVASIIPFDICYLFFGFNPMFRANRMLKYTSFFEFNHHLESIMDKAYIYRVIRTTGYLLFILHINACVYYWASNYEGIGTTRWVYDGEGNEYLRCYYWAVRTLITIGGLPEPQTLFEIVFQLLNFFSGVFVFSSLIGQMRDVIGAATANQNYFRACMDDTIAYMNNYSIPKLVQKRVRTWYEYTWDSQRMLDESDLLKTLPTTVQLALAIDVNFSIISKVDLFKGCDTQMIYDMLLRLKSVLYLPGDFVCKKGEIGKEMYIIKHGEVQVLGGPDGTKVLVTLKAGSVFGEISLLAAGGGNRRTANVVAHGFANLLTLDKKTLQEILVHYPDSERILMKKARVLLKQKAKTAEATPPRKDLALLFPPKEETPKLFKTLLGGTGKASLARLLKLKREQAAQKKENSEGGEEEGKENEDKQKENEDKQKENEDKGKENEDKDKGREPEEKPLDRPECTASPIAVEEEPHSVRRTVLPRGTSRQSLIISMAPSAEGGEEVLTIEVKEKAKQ

[4] = biological target: the molecule itself; experiment: as above

- binding result [1]: binds
B1: truncated human CNGA3 (amino acids 152-694) (domain or fragment, UniProt Q16281-1 152-694, looked up)
chain: KTKKKDAIVVDPSSNLYYRWLTAIALPVFYNWYLLICRACFDELQSEYLMLWLVLDYSADVLYVLDVLVRARTGFLEQGLMVSDTNRLWQHYKTTTQFKLDVLSLVPTDLAYLKVGTNYPEVRFNRLLKFSRLFEFFDRTETRTNYPNMFRIGNLVLYILIIIHWNACIYFAISKFIGFGTDSWVYPNISIPEHGRLSRKYIYSLYWSTLTLTTIGETPPPVKDEEYLFVVVDFLVGVLIFATIVGNVGSMISNMNASRAEFQAKIDSIKQYMQFRKVTKDLETRVIRWFDYLWANKKTVDEKEVLKSLPDKLKAEIAINVHLDTLKKVRIFQDCEAGLLVELVLKLRPTVFSPGDYICKKGDIGKEMYIINEGKLAVVADDGVTQFVVLSDGSYFGEISILNIKGSKSGNRRTANIRSIGYSDLFCLSKDDLMEALTEYPEAKKALEEKGRQILMKDNLIDEELARAGADPKDLEEKVEQLGSSLDTLQTRFARLLAEYNATQMKMKQRLSQLESQVKGGGDKPLADGEVPGDATKTEDKQQ
notes: human CNGA3, NCBI NP_001289.1, amino acids 152-694 (amino acids 1-151 removed); Expressed as trunCNGA3-P2A-trunCNGB3 from one pEZT-BM vector; also called truncated CNGA3; trunCNGA3
- binding result [2]: binds

- stoichiometry N [3]: 3 A3 per B3
B2: human CNGA3, full-length (natural protein, UniProt Q16281-1 1-694, looked up)
chain: MAKINTQYSHPSRTHLKVKTSDRDLNRAENGLSRAHSSSEETSSVLQPGIAMETRGLADSGQGSFTGQGIARLSRLIFLLRRWAARHVHHQDQGPDSFPDRFRGAELKEVSSQESNAQANVGSQEPADRGRSAWPLAKCNTNTSNNTEEEKKTKKKDAIVVDPSSNLYYRWLTAIALPVFYNWYLLICRACFDELQSEYLMLWLVLDYSADVLYVLDVLVRARTGFLEQGLMVSDTNRLWQHYKTTTQFKLDVLSLVPTDLAYLKVGTNYPEVRFNRLLKFSRLFEFFDRTETRTNYPNMFRIGNLVLYILIIIHWNACIYFAISKFIGFGTDSWVYPNISIPEHGRLSRKYIYSLYWSTLTLTTIGETPPPVKDEEYLFVVVDFLVGVLIFATIVGNVGSMISNMNASRAEFQAKIDSIKQYMQFRKVTKDLETRVIRWFDYLWANKKTVDEKEVLKSLPDKLKAEIAINVHLDTLKKVRIFQDCEAGLLVELVLKLRPTVFSPGDYICKKGDIGKEMYIINEGKLAVVADDGVTQFVVLSDGSYFGEISILNIKGSKSGNRRTANIRSIGYSDLFCLSKDDLMEALTEYPEAKKALEEKGRQILMKDNLIDEELARAGADPKDLEEKVEQLGSSLDTLQTRFARLLAEYNATQMKMKQRLSQLESQVKGGGDKPLADGEVPGDATKTEDKQQ
notes: human cone photoreceptor cyclic nucleotide-gated channel subunit CNGA3, NCBI NP_001289.1, full length; modelled residues about A158-I159 to D609-L614; Three copies of this subunit stand with one CNGB3 in the channel tetramer; MBP was cut off with P3C protease; residues of the P3C site may remain at the N-terminus; Cloned in the vector pEZT-BM (Addgene #74099); also called CNGA3L; A3L; source: HEK …
- binding result [4]: binds
